Experimental data as given in the RNAGym collection of RNA variant scans (doi:10.7554/elife.80360).

B1: Hammerhead Ribozyme (parent)
chain: ACCGGAUGUGCUUUCCGGUCUGAUGAGUCCGUGAGGACGAAACAG

Variants of: B1
Assay: self-cleavage, relative activity (ratio to wild type); higher = more cleavage; co-transcriptional

| Variant | self-cleavage |
| --- | --- |
| ACCGGAUGUGCUUUCCGGUCCGAUGAGUCCCUGAGGACGAAACAG [U21C G31C] | 0.678 |
| ACCGCAUGUGCUUUCCGGUCUGAUGAGUCCGUGAGGAUGAAACAG [G5C C38U] | 0.479 |
| ACCGGAUGUGCGUUCCGGUCUGAUGAGUCCGUGAGGACGAAACAU [U12G G45U] | 0.716 |
| ACCAGAUGUGCUUUCCGGUCUGAUGAGUCCGUGAGGACUAAACAG [G4A G39U] | 0.26 |
| ACCGGAUGUGCUUUCCGGUCUGAUGAGUCCGUGACUACGAAACAG [G35C G36U] | 0.401 |
| ACCGGAUGUGCUUUCCGGUCUGAUGAGUCGGUGCGGACGAAACAG [C30G A34C] | 0.802 |
| ACCGGAUGUGCUUUCCGGUCUGAUGAGUACGUGAGCACGAAACAG [C29A G36C] | 0.718 |
| ACCGGAUGUGCUUUCCGGUCUGAUGACUCCGUGAGGUCGAAACAG [G27C A37U] | 0.479 |
| ACCGGAUGUGCUCUCCGGUCUGAAGAGUCCGUGAGGACGAAACAG [U13C U24A] | 1.64 |
| ACCGGAUGUGCUUUUCGGUCAGAUGAGUCCGUGAGGACGAAACAG [C15U U21A] | 0.595 |
| ACCGGAUGUUCUUUCCGGUCUGAUGAGUCCGUGAGGACCAAACAG [G10U G39C] | 0.379 |
| ACCGGAUGUGCUUUCCAGUCUCAUGAGUCCGUGAGGACGAAACAG [G17A G22C] | 0.319 |
| UCCGGAUGGGCUUUCCGGUCUGAUGAGUCCGUGAGGACGAAACAG [A1U U9G] | 0.348 |
| ACAGGAUGUGCUUUCCGGUAUGAUGAGUCCGUGAGGACGAAACAG [C3A C20A] | 0.348 |
| ACCGGAUGUGCAUUCCGGUCUGAUGGGUCCGUGAGGACGAAACAG [U12A A26G] | 0.424 |
| ACCGGUUGUGGUUUCCGGUCUGAUGAGUCCGUGAGGACGAAACAG [A6U C11G] | 0.827 |
| CCCGGAUGUGCUUUCCGGUCUGAUGAGUCCGUGAGGACAAAACAG [A1C G39A] | 0.438 |
| ACCGGAUGUGCUUUCCGGUCUGAUGAGUUCGUGAGGACGAAACAU [C29U G45U] | 0.596 |
| ACCGGAUGUGCUUUCCGGUCUGAUGAGUCCGAGAGGACGAAUCAG [U32A A42U] | 0.373 |

| Variant | self-cleavage |
| --- | --- |
| AUCGGAUGUGCUUUCCGGUCUGAUGAGUCCGAGAGGACGAAACAG [C2U U32A] | 0.97 |
| AUCGGAUGUGCUUUCCGGUCUGAUGAGUCCGCGAGGACGAAACAG [C2U U32C] | 0.971 |
| ACCGGAUGCGCUUUCCGGUCUGAUGAGUCCGUGAUGACGAAACAG [U9C G35U] | 0.713 |
| ACCGGAUGCGCUUUCCGGUCUGAUGAGUCCGUAAGGACGAAACAG [U9C G33A] | 0.952 |
| ACCGGAUGUGCUUUCCGGUCUGAUGAGUCCGUGAGUACGAAACGG [G36U A44G] | 0.706 |
| ACCGGAUGUGCUUUCCGGUCCGAUGAGUCCGUGAGGACGUAACAG [U21C A40U] | 0.274 |
| ACCGGCUGUGCUUUUCGGUCUGAUGAGUCCGUGAGGACGAAACAG [A6C C15U] | 0.659 |
| ACCGGAUGUUCUUUCCGGUCUGAUGAGUCCGUGAGGCCGAAACAG [G10U A37C] | 0.934 |
| ACCGGAUGUGCUUUCCGGUCUGAUAAGUCCGUGAAGACGAAACAG [G25A G35A] | 0.315 |
| ACCGGAUGUGCUUUCCGGUCUGAUGAGUCCGUGAGGACAAAACAA [G39A G45A] | 0.371 |
| AGCGGAUGUGCUUUCCGGUCUGAUGAGUCCGUGAGGACGAAACAG [C2G] | 0.455 |
| ACGGGAUGUGCUUUCCGGUCUGAUGAGUCCGUGGGGACGAAACAG [C3G A34G] | 0.409 |
| ACCUGAUGUGCUUUCCGGUCUCAUGAGUCCGUGAGGACGAAACAG [G4U G22C] | 0.345 |
| ACCGGAUGUGCUUUGCGGUCUGAUCAGUCCGUGAGGACGAAACAG [C15G G25C] | 0.262 |
| AUCGGAUGUGCUUUCCGGUCUGAUGAGUCCGUGAGGACGAAAAAG [C2U C43A] | 0.361 |
| CCCGGAUGUGAUUUCCGGUCUGAUGAGUCCGUGAGGACGAAACAG [A1C C11A] | 0.36 |
| ACCGGAUGUGCGUUCCGGUCUGAUGAGUCCGUGAGGACGAAACCG [U12G A44C] | 0.499 |
| ACCGAAUGUGCUUUCCGGUCUGAUGAGUCCGUGGGGACGAAACAG [G5A A34G] | 1.2 |
| ACCGGCUGUGCUUUCCGGUCUGAUGAGUCCGUGAGGACGAAAGAG [A6C C43G] | 0.294 |

| Variant | self-cleavage |
| --- | --- |
| ACCGGAUGUGCUUUCCGGUCAGAUGAGACCGUGAGGACGAAACAG [U21A U28A] | 0.46 |
| ACCGGAUGUGCUUUCCGCGCUGAUGAGUCCGUGAGGACGAAACAG [G18C U19G] | 0.224 |
| ACCGGAUGUGCUUUCCGGUGAGAUGAGUCCGUGAGGACGAAACAG [C20G U21A] | 0.286 |
| ACCGGAUGUGCUUUGCGGUCUGAUGAGUCCGUGAGGACGAAACAU [C15G G45U] | 0.421 |
| UCCGGAUGUGCUUUCCGGUCUGAUGAGUCCGUGAAGACGAAACAG [A1U G35A] | 0.635 |
| ACCGGAUGUGCUUUCCGGUCUGAUGACUCCGUGAGGACGACACAG [G27C A41C] | 0.339 |
| ACCGGAUGGGCUAUCCGGUCUGAUGAGUCCGUGAGGACGAAACAG [U9G U13A] | 1.93 |
| ACCGGAAGAGCUUUCCGGUCUGAUGAGUCCGUGAGGACGAAACAG [U7A U9A] | 0.874 |
| CCCGGACGUGCUUUCCGGUCUGAUGAGUCCGUGAGGACGAAACAG [A1C U7C] | 0.38 |
| ACCGCAUGUGCUUUCCGGUCUGAUGAGACCGUGAGGACGAAACAG [G5C U28A] | 0.376 |
| ACCGGAUGUGCUUUCCGGUCGGAUGUGUCCGUGAGGACGAAACAG [U21G A26U] | 0.431 |
| ACCGGAUGUGCUUGCCGGUCUGAUGAGUCCGUCAGGACGAAACAG [U14G G33C] | 0.528 |
| ACCGGAUGUGCUUUCCGGUCUGAUGAAUGCGUGAGGACGAAACAG [G27A C29G] | 0.412 |
| ACCGGAUGUGCUUUCGCGUCUGAUGAGUCCGUGAGGACGAAACAG [C16G G17C] | 0.445 |
| ACCGGAUGUGCUUUCCGGUCUGAAGAAUCCGUGAGGACGAAACAG [U24A G27A] | 0.7 |
| ACCGGAUGUGCUUUCCGGUCUGAGUAGUCCGUGAGGACGAAACAG [U24G G25U] | 0.338 |
| ACCGGAUCUGCUUUCCGGUCCGAUGAGUCCGUGAGGACGAAACAG [G8C U21C] | 0.611 |
| ACCGGAUGUGCUUUCCGGUCUGAGGAGUCCCUGAGGACGAAACAG [U24G G31C] | 1.19 |
| ACCGGAUGUGCUUUCCGGUCUGAUGAGUCCGUGAGGAAGAAACGG [C38A A44G] | 0.862 |
